For series [1], the system named is HeLa Kyoto. The experiment in a line: solubility in G1/S (NP-40 vs SDS abundance) (log2 ratio); higher = more soluble. To be noted: cell cycle stage: G1/S.
In series [2] the test system is HeLa Kyoto. The experiment in a line: melting temperature (median over replicates), in situ; higher = more thermally stable.
Series [3] relates to HeLa Kyoto. Nature of the series: solubility change mitosis vs G1/S (difference of NP-40 vs SDS log2 ratios) (log2 ratio difference); higher = more soluble in mitosis.
Series [4] deals with HeLa Kyoto. The experiment in a line: thermal stability score vs G1/S (z-score of summed log2 fold changes over temperatures); higher = more thermally stable than in G1/S.
Where [5] appears, read: cell cycle stage: early G1 (4.5 h after nocodazole release).
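For melting temperature (median over replicates), in situ in this document: HeLa Kyoto cells synchronized by double thymidine or nocodazole block, proteins quantified by TMT10plex mass spectrometry, three independent biological replicates.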
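For solubility change mitosis vs G1/S (difference of NP-40 vs SDS log2 ratios) in this document: synchronized HeLa Kyoto cells (double thymidine block for G1/S, nocodazole release for mitosis), protein amounts in NP-40 versus SDS lysates quantified by mass spectrometry, three biological replicates.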
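For solubility in G1/S (NP-40 vs SDS abundance) in this document: HeLa Kyoto cells arrested at G1/S by double thymidine block, proteins quantified by TMT10plex mass spectrometry in mild NP-40 versus SDS extracts, three biological replicates.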
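For thermal stability score vs G1/S (z-score of summed log2 fold changes over temperatures) in this document: synchronized HeLa Kyoto cells, proteins quantified by TMT10plex mass spectrometry, three biological replicates, mitosis taken 0.5 h after nocodazole release, G1/S directly after double thymidine block.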

Sequence of DHX9 (chain, as listed by the source): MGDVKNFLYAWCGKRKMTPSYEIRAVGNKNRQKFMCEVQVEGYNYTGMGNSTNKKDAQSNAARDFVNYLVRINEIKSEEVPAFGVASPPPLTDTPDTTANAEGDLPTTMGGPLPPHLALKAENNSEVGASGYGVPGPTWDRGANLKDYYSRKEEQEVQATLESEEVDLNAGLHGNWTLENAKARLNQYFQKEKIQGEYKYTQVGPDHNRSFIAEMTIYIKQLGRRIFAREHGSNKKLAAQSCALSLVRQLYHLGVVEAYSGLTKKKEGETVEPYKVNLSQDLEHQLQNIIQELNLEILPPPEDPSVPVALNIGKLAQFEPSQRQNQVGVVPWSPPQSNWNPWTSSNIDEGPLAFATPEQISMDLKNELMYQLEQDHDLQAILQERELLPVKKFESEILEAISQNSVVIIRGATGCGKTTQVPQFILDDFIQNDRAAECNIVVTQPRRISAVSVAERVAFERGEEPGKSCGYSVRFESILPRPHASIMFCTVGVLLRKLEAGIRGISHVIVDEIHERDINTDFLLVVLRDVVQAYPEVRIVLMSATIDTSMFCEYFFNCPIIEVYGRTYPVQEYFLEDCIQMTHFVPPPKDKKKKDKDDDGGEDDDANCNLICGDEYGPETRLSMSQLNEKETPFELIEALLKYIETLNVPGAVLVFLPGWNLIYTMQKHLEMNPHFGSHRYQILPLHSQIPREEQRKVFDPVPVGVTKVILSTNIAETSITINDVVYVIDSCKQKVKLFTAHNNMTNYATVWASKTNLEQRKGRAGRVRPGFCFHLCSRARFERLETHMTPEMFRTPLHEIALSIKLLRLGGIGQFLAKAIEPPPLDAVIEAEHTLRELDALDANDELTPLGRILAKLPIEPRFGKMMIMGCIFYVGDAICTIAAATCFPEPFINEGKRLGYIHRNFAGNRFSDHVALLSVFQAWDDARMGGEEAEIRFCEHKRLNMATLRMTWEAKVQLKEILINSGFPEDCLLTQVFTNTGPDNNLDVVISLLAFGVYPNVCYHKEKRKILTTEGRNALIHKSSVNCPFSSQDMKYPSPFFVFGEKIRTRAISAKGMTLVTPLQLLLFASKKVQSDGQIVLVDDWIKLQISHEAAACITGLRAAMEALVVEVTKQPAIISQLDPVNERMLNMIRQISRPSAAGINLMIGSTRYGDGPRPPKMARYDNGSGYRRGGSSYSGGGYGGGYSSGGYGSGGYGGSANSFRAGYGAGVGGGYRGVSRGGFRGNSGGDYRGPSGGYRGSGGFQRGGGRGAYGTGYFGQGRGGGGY

Consider “MLFNSVLRQPQLGVLRNGWSSQYPLQSLLTGYQCSGNDEHTSYGETGVPVPPFGCTFSSAPNMEHVLAVANEEGFVRLYNTESQSFRKKCFKEWMAHWNAVFDLAWVPGELKLVTAAGDQTAKFWDVKAGELIGTCKGHQCSLKSVAFSKFEKAVFCTGGRDGNIMVWDTRCNKKDGFYRQVNQISGAHNTSDKQTPSKPKKKQNSKGLAPSVDFQQSVTVVLFQDENTLVSAGAVDGIIKVWDLRKNYTAYRQEPIASKSFLYPGSSTRKLGYSSLILDSTGSTLFANCTDDNIYMFNMTGLKTSPVAIFNGHQNSTFYVKSSLSPDDQFLVSGSSDEAAYIWKVSTPWQPPTVLLGHSQEVTSVCWCPSDFTKIATCSDDNTLKIWRLNRGLEEKPGGDKLSTVGWASQKKKESRPGLVTVTSSQSTPAKAPRAKCNPSNSSPSSAACAPSCAGDLPLPSNTPTFSIKTSPAKARSPINRRGSVSSVSPKPPSSFKMSIRNWVTRTPSSSPPITPPASETKIMSPRKALIPVSQKSSQAEACSESRNRVKRRLDSSCLESVKQKCVKSCNCVTELDGQVENLHLDLCCLAGNQEDLSKDSLGPTKSSKIEGAGTSISEPPSPISPYASESCGTLPLPLRPCGEGSEMVGKENSSPENKNWLLAMAAKRKAENPSPRSPSSQTPNSRRQSGKKLPSPVTITPSSMRKICTYFHRKSQEDFCGPEHSTEL [DTL]”, for which, in the series on HeLa Kyoto [1], the “solubility in G1/S (log2)” value was -0.00542. Also, the melting temperature was 50.4 °C in the series with HeLa Kyoto [2] (cell cycle stage: G1/S) and 50.1 °C with HeLa Kyoto [2] (cell cycle stage: mitosis). In addition, the “solubility change mitosis (log2)” value in the series on HeLa Kyoto [3] was -0.0846. Further, the thermal stability score is -1.36 with HeLa Kyoto [4] (setting [5]) and -1.25 in the series on HeLa Kyoto [4] (cell cycle stage: mitosis).

As to “MAAMRKALPRRLVGLASLRAVSTSSMGTLPKRVKIVEVGPRDGLQNEKNIVSTPVKIKLIDMLSEAGLSVIETTSFVSPKWVPQMGDHTEVLKGIQKFPGINYPVLTPNLKGFEAAVAAGAKEVVIFGAASELFTKKNINCSIEESFQRFDAILKAAQSANISVRGYVSCALGCPYEGKISPAKVAEVTKKFYSMGCYEISLGDTIGVGTPGIMKDMLSAVMQEVPLAALAVHCHDTYGQALANTLMALQMGVSVVDSSVAGLGGCPYAQGASGNLATEDLVYMLEGLGIHTGVNLQKLLEAGNFICQALNRKTSSKVAQATCKL [HMGCL]”, in the series with HeLa Kyoto [1], the “solubility in G1/S (log2)” value came out at 0.536. Moreover, the figures for the melting temperature with HeLa Kyoto [2] (cell cycle stage: G1/S) and with HeLa Kyoto [2] (cell cycle stage: mitosis) were 54.1 °C and 53.9 °C, respectively. Besides, in the series on HeLa Kyoto [3], the “solubility change mitosis (log2)” value is -0.047. Besides, the figures for the thermal stability score in the series on HeLa Kyoto [4] (setting [5]) and in the series with HeLa Kyoto [4] (cell cycle stage: mitosis) were 0.275 and 0.372, respectively.

In the case of DHX9, the “solubility in G1/S (log2)” value in the series with HeLa Kyoto [1] was -0.671. Also, the melting temperature in the series on HeLa Kyoto [2] (cell cycle stage: G1/S) and in the series with HeLa Kyoto [2] (cell cycle stage: mitosis) was 50.5 °C each time. Further, the “solubility change mitosis (log2)” value in the series on HeLa Kyoto [3] turned out to be 0.211. The thermal stability score is 1.02 with HeLa Kyoto [4] (setting [5]) and 2.63 in the series on HeLa Kyoto [4] (cell cycle stage: mitosis).

Consider “MSSLHKSRIADFQDVLKEPSIALEKLRELSFSGIPCEGGLRCLCWKILLNYLPLERASWTSILAKQRELYAQFLREMIIQPGIAKANMGVSREDVTFEDHPLNPNPDSRWNTYFKDNEVLLQIDKDVRRLCPDISFFQRATDYPCLLILDPQNEFETLRKRVEQTTLKSQTVARNRSGVTNMSSPHKNSVPSSLNEYEVLPNGCEAHWEVVERILFIYAKLNPGIAYVQGMNEIVGPLYYTFATDPNSEWKEHAEADTFFCFTNLMAEIRDNFIKSLDDSQCGITYKMEKVYSTLKDKDVELYLKLQEQNIKPQFFAFRWLTLLLSQEFLLPDVIRIWDSLFADDNRFDFLLLVCCAMLMLIREQLLEGDFTVNMRLLQDYPITDVCQILQKAKELQDSK [TBC1D13]”, for which the “solubility in G1/S (log2)” value with HeLa Kyoto [1] was 0.0698. Besides, the melting temperature with HeLa Kyoto [2] (cell cycle stage: G1/S) amounted to 53.2 °C; in the series with HeLa Kyoto [2] (cell cycle stage: mitosis), 54.1 °C. Moreover, the “solubility change mitosis (log2)” value in the series with HeLa Kyoto [3] is -0.145. Besides, the thermal stability score in the series on HeLa Kyoto [4] (setting [5]) was -0.565; with HeLa Kyoto [4] (cell cycle stage: mitosis), 0.385.

For “MDFLMSGLAACGACVFTNPLEVVKTRMQLQGELQAPGTYQRHYRNVFHAFITIGKVDGLAALQKGLAPALLYQFLMNGIRLGTYGLAEAGGYLHTAEGTHSPARSAAAGAMAGVMGAYLGSPIYMVKTHLQAQAASEIAVGHQYKHQGMFQALTEIGQKHGLVGLWRGALGGLPRVIVGSSTQLCTFSSTKDLLSQWEIFPPQSWKLALVAAMMSGIAVVLAMAPFDVACTRLYNQPTDAQGKGLMYRGILDALLQTARTEGIFGMYKGIGASYFRLGPHTILSLFFWDQLRSLYYTDTK [SLC25A35]”, the “solubility in G1/S (log2)” value in the series on HeLa Kyoto [1] was determined as 0.0544. The results for the melting temperature in the series on HeLa Kyoto [2] (cell cycle stage: G1/S) and in the series with HeLa Kyoto [2] (cell cycle stage: mitosis) were 56.2 °C and 54.3 °C, respectively. Also, the “solubility change mitosis (log2)” value in the series on HeLa Kyoto [3] is -0.137. For the same substance, the thermal stability score with HeLa Kyoto [4] (setting [5]) was 0.653; in the series on HeLa Kyoto [4] (cell cycle stage: mitosis), -0.326.

For the substance “MQPQSVLHSGYFHPLLRAWQTATTTLNASNLIYPIFVTDVPDDIQPITSLPGVARYGVKRLEEMLRPLVEEGLRCVLIFGVPSRVPKDERGSAADSEESPAIEAIHLLRKTFPNLLVACDVCLCPYTSHGHCGLLSENGAFRAEESRQRLAEVALAYAKAGCQVVAPSDMMDGRVEAIKEALMAHGLGNRVSVMSYSAKFASCFYGPFRDAAKSSPAFGDRRCYQLPPGARGLALRAVDRDVREGADMLMVKPGMPYLDIVREVKDKHPDLPLAVYHVSGEFAMLWHGAQAGAFDLKAAVLEAMTAFRRAGADIIITYYTPQLLQWLKEE [ALAD]”, the “solubility in G1/S (log2)” value with HeLa Kyoto [1] amounted to 0.106. Further, the melting temperature in the series on HeLa Kyoto [2] (cell cycle stage: G1/S) came out at 57 °C; in the series on HeLa Kyoto [2] (cell cycle stage: mitosis), 55.2 °C. Also, the “solubility change mitosis (log2)” value in the series with HeLa Kyoto [3] is -0.212. The thermal stability score with HeLa Kyoto [4] (setting [5]) was -2.61; with HeLa Kyoto [4] (cell cycle stage: mitosis) it was -2.88.

For “MPKCPKCNKEVYFAERVTSLGKDWHRPCLKCEKCGKTLTSGGHAEHEGKPYCNHPCYAAMFGPKGFGRGGAESHTFK [CRIP1]”, in the series with HeLa Kyoto [1], the “solubility in G1/S (log2)” value was -0.362. The values for the melting temperature with HeLa Kyoto [2] (cell cycle stage: G1/S) and in the series with HeLa Kyoto [2] (cell cycle stage: mitosis) were 57.6 °C and 53.5 °C, respectively. In the series with HeLa Kyoto [3], the “solubility change mitosis (log2)” value was determined as 0.414. Further, the values for the thermal stability score in the series on HeLa Kyoto [4] (setting [5]) and in the series on HeLa Kyoto [4] (cell cycle stage: mitosis) were -4.54 and -5.63, respectively.

Values taken from the supplement of paper PMC5998384.
